# Reference: patent US20020082273A1, “Agents for use in the treatment of alzheimer's disease” (priority 1998, published 2002)
# B1: proteinase K: protease (protein, UniProt P06873 106-384, looked up)
# Proteinase K: AAQTNAPWGLARISSTSPGTSTYYYDESAGQGSCVYVIDTGIEASHPEFEGRAQMVKTYYYSSRDGNGHGTHCAGTVGSRTYGVAKKTQLFGVKVLDDNGSGQYSTIIAGMDFVASDKNNRNCPKGVVASLSLGGGYSSSVNSAAARLQSSGVMVAVAAGNNNADARNYSPASEPSVCTVGASDRYDRRSSFSNYGSVLDIFGPGTSILSTWIGGSTRSISGTSMATPHVAGLAAYLMTLGKTTAASACRYIADTANKGDLSNIPFGTVNLLAYNNYQA
# Tested on: Aβ1-40 or Aβ1-42 SDS-resistant polymers
# Test: Dissolution of in vitro Cu^2+-induced SDS-resistant Aβ polymers
# Type: biochemical, human
molecule,measurement,value
B1,degradation of SDS-resistant Aβ polymers,complete degradation
